The target in experiment [1] is T1, HLA-A2 (HLA-A*0201) on TAP-deficient T2 cells (human).
T1 construct: also called MHC I (HLA-A2)
In words: T2 binding assay, flow cytometry for HLA-A2. (In general: A flow cytometer gives signals particle by particle.)
Description: (§1) TAP-deficient T2 cells were incubated with 20 μg/ml of peptides and 3 μg/ml of β₂-microglobulin (Sigma-Aldrich, Cat # M4890) for 24 hours at 37° C. and 5% CO₂ in air. […] The binding affinity of the peptide to HLA-A2 (T2 binding index) was quantified as follows: (Mean fluorescence intensity [MFI] of HLA-A2 with peptide—MFI of HLA-A2 without peptide)/(MFI of HLA-A2 without peptide).

Experiment [2] concerns the target T1, HLA-A2 (HLA-A*0201) on TAP-deficient T2 …. In words: T2 cell peptide-binding assay, flow cytometry for HLA-A2.
Description: as §1

B1: TCL1 65-79 peptide (TQIGPSLLPIMWQLY) (peptide)
peptide: TQIGPSLLPIMWQLY
notes: Synthetic peptide (Sigma-Aldrich, >70% purity); also called P17
Take B1: the binding result in experiment [1] was “binds”.

B2: TCL1 71-78 peptide (LLPIMWQL) (peptide)
peptide: LLPIMWQL
notes: Synthetic peptide
In the case of B2, the binding result in experiment [2] is “binds”.

(Values after US20140348902A1 (University of Texas, published 2014).)
